In US20120040403A1 (NANYANG TECHNOLOGICAL UNIVERSITY, published 2012):

Target: the molecule itself
Assay: size-exclusion chromatography (Superdex 75)
Description: Gel filtration was performed at 4° C. using the AKTA FPLC system equipped with a Superdex 75 HR 16/60 column (Amersham Biosciences). The buffer used for gel filtration is comprised of 50 mM Tris-Cl (pH 8.0), 300 mM NaCl, 5% Glycerol, 1 mM DTT. Fractions containing the recombinant protein were concentrated using Amicon concentrator (Millipore) to a final concentration of ca. 5 mg/ml as measured using Bradford assay. Concentrated proteins were stored in −80° C. degree after flash-freeze using liquid nitrogen. Mutant proteins were expressed, purified and stored following the same procedure. The molecular weight and oligomeric state of the protein was estimated based on the standard curve generated by using the standard proteins that include albumin, ovalbumin, chemotrypsinogen, RNase A. The final yield of the recombinant protein was 12-15 mg per liter culture for the wild type the mutant enzyme.

B1: tDGC mutant R158A (enzyme)
chain: MGSSHHHHHHSSGLVPRGSHMKELEYMAYHDPLTGLPNRRYFFELGNRYLDLAKREGKKVFVLFVDLAGFKAINDTYGHLSGDEVLKTVSKRILDRVARSDVVARYGGDEFTILLYDMKEEYLKSLLERILSTFREPVRVENKHLSVTPNIGVARFPEDGENLEELLKVADMRMYKAKEMKVPYFSLS
notes: Expressed from pET28b(+) with a (His)6 tag; Found as a monomer in solution; also called R158A mutant; mutant tDGC
- binding result: no binding
